# T1: Flag-Drosha S300E,S302D (phospho-mimic) (UniProt Q9NRR4 1-1374, S300E | S302D)
# T1 construct: Drosha with S300E and S302D, Flag-tagged as m1; also called phospho-mimic Drosha; source: HEK293T, transfected, in lysate
# T1 sequence (looked up): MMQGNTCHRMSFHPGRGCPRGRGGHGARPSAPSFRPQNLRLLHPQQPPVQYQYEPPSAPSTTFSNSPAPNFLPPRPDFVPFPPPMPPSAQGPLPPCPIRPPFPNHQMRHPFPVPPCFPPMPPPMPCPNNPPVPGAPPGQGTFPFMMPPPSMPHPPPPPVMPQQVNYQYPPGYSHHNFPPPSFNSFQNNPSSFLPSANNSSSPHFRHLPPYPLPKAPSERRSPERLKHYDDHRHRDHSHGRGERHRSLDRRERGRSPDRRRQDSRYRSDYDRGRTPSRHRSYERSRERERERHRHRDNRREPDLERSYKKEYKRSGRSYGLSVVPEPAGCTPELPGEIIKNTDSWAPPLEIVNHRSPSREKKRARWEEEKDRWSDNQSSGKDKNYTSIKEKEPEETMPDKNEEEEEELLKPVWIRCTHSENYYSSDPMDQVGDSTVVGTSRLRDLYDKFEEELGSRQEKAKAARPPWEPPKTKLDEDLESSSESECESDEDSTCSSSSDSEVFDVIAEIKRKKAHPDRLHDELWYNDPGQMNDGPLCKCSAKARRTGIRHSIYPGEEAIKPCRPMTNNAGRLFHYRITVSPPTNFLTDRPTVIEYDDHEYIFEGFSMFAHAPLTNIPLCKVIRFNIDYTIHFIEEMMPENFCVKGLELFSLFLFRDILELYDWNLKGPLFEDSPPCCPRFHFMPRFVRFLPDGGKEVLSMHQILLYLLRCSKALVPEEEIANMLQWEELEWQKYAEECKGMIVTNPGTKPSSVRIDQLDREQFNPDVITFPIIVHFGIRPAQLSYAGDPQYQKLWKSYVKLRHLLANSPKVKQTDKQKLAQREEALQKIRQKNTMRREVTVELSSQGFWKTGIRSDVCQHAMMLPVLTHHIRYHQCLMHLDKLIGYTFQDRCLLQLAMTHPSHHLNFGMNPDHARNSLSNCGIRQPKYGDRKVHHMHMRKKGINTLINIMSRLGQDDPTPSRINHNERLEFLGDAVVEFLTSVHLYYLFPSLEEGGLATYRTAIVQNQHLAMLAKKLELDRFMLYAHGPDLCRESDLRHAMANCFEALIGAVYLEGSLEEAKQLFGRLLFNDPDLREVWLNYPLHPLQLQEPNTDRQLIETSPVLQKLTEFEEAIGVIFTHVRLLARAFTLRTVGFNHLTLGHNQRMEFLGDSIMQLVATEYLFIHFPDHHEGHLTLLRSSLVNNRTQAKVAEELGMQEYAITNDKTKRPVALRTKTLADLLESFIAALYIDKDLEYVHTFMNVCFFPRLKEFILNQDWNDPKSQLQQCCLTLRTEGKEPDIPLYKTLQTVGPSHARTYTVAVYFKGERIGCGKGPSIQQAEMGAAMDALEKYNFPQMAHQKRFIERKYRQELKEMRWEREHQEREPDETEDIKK
# B1: DGCR8 (natural protein, human (endogenous in HEK293T), UniProt Q8WYQ5 1-773, looked up)
# chain: METDESPSPLPCGPAGEAVMESRARPFQALPREQSPPPPLQTSSGAEVMDVGSGGDGQSELPAEDPFNFYGASLLSKGSFSKGRLLIDPNCSGHSPRTARHAPAVRKFSPDLKLLKDVKISVSFTESCRSKDRKVLYTGAERDVRAECGLLLSPVSGDVHACPFGGSVGDGVGIGGESADKKDEENELDQEKRVEYAVLDELEDFTDNLELDEEGAGGFTAKAIVQRDRVDEEALNFPYEDDFDNDVDALLEEGLCAPKKRRTEEKYGGDSDHPSDGETSVQPMMTKIKTVLKSRGRPPTEPLPDGWIMTFHNSGVPVYLHRESRVVTWSRPYFLGTGSIRKHDPPLSSIPCLHYKKMKDNEEREQSSDLTPSGDVSPVKPLSRSAELEFPLDEPDSMGADPGPPDEKDPLGAEAAPGALGQVKAKVEVCKDESVDLEEFRSYLEKRFDFEQVTVKKFRTWAERRQFNREMKRKQAESERPILPANQKLITLSVQDAPTKKEFVINPNGKSEVCILHEYMQRVLKVRPVYNFFECENPSEPFGASVTIDGVTYGSGTASSKKLAKNKAARATLEILIPDFVKQTSEEKPKDSEELEYFNHISIEDSRVYELTSKAGLLSPYQILHECLKRNHGMGDTSIKFEVVPGKNQKSEYVMACGKHTVRGWCKNKRVGKQLASQKILQLLHPHVKNWGSLLRMYGRESSKMVKQETSDKSVIELQQYAKKNKPNLHILSKLQEEMKRLAEEREETRKKPKMSIVASAQPGGEPLCTVDV
# notes: DGCR8, Microprocessor cofactor of Drosha, detected by blot in Flag immunoprecipitates of HEK293T cells; source: HEK293T lysate (cells transfected with Flag-Drosha only)
# Molecular target: T1, Flag-Drosha S300E,S302D (phospho-mimic)
# Assay: co-IP; Flag immunoprecipitates of HEK293T cells transfected with Flag-Drosha (WT or mutants), blotted for PLK1 or DGCR8; cells treated with DMSO, RO-520 (100 nM) or NMS (500 nM) for 16 h, or samples with RNase A; mutant panel 72 h after transfection
# Details: partners not purified
binder,measurement,value
B1,fold change of co-precipitated DGCR8 against WT Drosha,2.5 fold

# Source: paper PMC10531876, “PLK1 Regulates MicroRNA Biogenesis through Drosha Phosphorylation” (International Journal of Molecular Sciences, 2023)
